Measured values taken from patent publication US20090074722A1, “Products and methods for treating PTP lar diseases” (MAX-PLANCK-GESELLSCHAFT ZUR, priority 1999, published 2009).

Target: T1, plakoglobin (Homo sapiens, UniProt P14923)
T1 construct: expressed in transfected cells; host or cells: human embryonic kidney 293 cells, transient, pervanadate-treated, used as lysate; the GST-PTP LARi partner was made in E. coli
T1 sequence (P14923 1-745): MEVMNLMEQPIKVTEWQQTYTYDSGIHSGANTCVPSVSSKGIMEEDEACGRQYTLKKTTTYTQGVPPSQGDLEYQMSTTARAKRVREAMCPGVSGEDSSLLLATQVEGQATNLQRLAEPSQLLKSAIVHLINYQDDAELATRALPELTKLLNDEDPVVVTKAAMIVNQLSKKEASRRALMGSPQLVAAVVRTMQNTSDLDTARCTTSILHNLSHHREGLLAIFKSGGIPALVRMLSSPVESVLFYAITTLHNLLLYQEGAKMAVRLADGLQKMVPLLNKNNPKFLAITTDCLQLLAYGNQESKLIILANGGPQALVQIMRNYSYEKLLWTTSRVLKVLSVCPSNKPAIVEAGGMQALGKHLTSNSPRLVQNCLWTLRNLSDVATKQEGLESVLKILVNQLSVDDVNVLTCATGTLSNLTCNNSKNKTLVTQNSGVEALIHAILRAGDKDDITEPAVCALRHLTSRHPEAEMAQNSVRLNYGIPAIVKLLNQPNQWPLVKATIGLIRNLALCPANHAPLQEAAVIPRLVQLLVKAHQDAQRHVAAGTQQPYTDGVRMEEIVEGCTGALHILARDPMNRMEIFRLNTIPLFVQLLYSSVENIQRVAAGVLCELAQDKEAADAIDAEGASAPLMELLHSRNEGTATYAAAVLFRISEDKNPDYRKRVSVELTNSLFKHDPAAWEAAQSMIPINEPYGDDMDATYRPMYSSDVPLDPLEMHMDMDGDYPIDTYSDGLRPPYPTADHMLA
Experiment: In vitro binding assay (GST pull-down), plakoglobin
Details: lysates of pervanadate treated 293 cells overexpressing plakoglobin
Experimental: After 24 h of serum starvation, the cells were stimulated with pervanadate for 10 minutes before lysis. Equal amounts of lysats were incubated with the GST-PTP LAR cytoplasmic fusion protein (GST-PTP LARi) or a threefold molar excess of GST. Lysates of control vector transfected 293 cells were incubated with the GST-PTP LAR cytoplasmic fusion protein (GST-PTP LARi). Complexes were immobilized on glutathione-sepharose, and precipitates were separated by SDS-PAGE. Bound proteins were analyzed by Western blotting with an anti-β-catenin antibody (left) or an antibody against plakoglobin (right). Arrows indicate the proteins of interest. Molecular mass standards in kilodaltons are shown on the left. […]
To investigate the potential association of PTP LAR with the cadherin/catenin-complex in intact cells, subconfluent human MCF7 cells were stimulated with EGF, were lysed, and were immunoprecipitated with antibodies either against PTP LAR or the cadherin/catenin-complex. Western blotting analysis with specific antibodies to β-catenin and E-cadherin (FIG. 5A) or plakoglobin and E-cadherin (FIG. 5B) detected these proteins in anti-human PTP LAR immunoprecipitates with the monoclonal antibody 11.1A against the extracellular domain of human PTP LAR and vice versa. […]

B1: GST-PTP LAR cytoplasmic: GST fusion protein comprising the entire cytoplasmic domain (amino acids 1259-1881) of human PTP LAR (protein)
chain: PEMLWVTGPVLAVILIILIVIAILLFKRKRTHSPSSKDEQSIGLKDSLLAHSSDPVEMRRLNYQTPGMRDHPPIPITDLADNIERLKANDGLKFSQEYESIDPGQQFTWENSNLEVNKPKNRYANVIAYDHSRVILTSIDGVPGSDYINANYIDGYRKQNAYIATQGPLPETMGDFWRMVWEQRTATVVMMTRLEEKSRVKCDQYWPARGTETCGLIQVTLLDTVELATYTVRTFALHKSGSSEKRELRQFQFMAWPDHGVPEYPTPILAFLRRVKACNPLDAGPMVVHCSAGVGRTGCFIVIDAMLERMKHEKTVDIYGHVTCMRSQRNYMVQTEDQYVFIHEALLEAATCGHTEVPARNLYAHIQKLGQVPPGESVTAMELEFKLLASSKAHTSRFISANLPCNKFKNRLVNIMPYELTRVCLQPIRGVEGSDYINASFLDGYRQQKAYIATQGPLAESTEDFWRMLWEHNSTIIVMLTKLREMGREKCHQYWPAERSARYQYFVVDPMAEYNMPQYILREFKVTDARDGQSRTIRQFQFTDWPEQGVPKTGEGFIDFIGQVHKTKEQFGQDGPITVHCSAGVGRTGVFITLSIVLERMRYEGVVDMFQTVKTLRTQRPAM
- association with plakoglobin: associate specifically
